One series relates to TALER10 (synthetic). Nature of the series: cell_activity. As to conditions: for activity (mKate2/TagBFP): cognate 0.00.
The subject of a further series is TALER9 (synthetic). The series can be described thus: cell_activity. The following applies: for activity (mKate2/TagBFP): cognate 0.01.
In the next series the test system is TALER5 (synthetic). Nature of the series: cell_activity.
A further series has as its target T1, TALER24 (synthetic, UniProt P14727 SEQ:1-806).
T1 chain: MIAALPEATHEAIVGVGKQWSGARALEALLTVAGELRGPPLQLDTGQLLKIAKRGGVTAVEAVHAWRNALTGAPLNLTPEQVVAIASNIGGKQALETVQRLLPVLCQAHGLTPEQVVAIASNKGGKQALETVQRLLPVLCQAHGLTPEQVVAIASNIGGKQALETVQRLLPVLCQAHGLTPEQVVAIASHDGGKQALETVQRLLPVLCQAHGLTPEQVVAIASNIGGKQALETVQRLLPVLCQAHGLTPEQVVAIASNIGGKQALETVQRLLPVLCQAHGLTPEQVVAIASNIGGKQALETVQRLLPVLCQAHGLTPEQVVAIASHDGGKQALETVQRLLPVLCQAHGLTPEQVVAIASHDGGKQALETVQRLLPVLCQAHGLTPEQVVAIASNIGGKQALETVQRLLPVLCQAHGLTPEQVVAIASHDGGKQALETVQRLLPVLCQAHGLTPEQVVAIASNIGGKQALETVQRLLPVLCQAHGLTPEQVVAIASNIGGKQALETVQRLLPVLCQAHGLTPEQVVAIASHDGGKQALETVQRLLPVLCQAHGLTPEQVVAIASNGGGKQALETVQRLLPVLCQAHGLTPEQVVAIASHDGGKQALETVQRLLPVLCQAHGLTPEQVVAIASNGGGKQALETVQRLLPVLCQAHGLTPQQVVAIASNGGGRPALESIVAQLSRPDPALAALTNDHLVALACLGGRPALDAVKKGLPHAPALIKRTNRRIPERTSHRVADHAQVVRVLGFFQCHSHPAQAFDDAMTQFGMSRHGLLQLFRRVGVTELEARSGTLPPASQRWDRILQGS
The series can be described thus: cell_activity; HEK293, two sites flanking CMVmini. As to conditions: tags: EYFP-2A upstream, SV40 NLS.

For another series, the target named is T2, TALER26 (synthetic, UniProt P14727 SEQ:263-1244).
T2 chain: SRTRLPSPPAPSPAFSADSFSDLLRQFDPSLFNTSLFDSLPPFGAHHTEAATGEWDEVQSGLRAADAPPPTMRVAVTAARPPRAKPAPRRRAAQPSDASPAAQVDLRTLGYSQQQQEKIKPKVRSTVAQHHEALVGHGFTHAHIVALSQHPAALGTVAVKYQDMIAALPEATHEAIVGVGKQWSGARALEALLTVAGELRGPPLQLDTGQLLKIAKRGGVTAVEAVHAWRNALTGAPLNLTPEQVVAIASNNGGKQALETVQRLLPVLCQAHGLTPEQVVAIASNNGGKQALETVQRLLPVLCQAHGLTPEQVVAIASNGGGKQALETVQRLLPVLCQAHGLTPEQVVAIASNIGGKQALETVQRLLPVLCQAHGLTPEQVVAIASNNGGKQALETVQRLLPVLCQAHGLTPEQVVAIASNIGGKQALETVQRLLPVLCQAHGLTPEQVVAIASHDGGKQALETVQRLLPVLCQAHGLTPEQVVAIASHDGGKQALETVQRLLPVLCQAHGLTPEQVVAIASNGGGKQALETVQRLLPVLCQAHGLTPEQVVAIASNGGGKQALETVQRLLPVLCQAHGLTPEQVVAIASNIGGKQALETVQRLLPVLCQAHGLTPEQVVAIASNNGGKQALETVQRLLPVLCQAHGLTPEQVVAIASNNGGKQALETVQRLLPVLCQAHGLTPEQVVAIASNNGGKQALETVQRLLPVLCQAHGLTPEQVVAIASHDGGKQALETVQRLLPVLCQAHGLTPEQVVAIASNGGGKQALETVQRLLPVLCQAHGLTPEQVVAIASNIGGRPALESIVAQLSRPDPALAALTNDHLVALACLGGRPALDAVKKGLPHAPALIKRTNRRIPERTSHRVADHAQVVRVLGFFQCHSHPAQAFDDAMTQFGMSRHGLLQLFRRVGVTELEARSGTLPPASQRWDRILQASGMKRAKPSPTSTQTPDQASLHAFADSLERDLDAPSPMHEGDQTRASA
The series can be described thus: cell_activity; HEK293, two sites flanking CMVmini. As to conditions: tags: EYFP-2A upstream, SV40 NLS.

Where [1] appears, read: HEK293, two sites flanking CMVmini.

Our source for the activity (mKate2/TagBFP), binding signal (fold repression) and binding signal values is patent US20200071711, “MODULAR CONSTRUCTION OF SYNTHETIC GENE CIRCUITS IN MAMMALIAN CELLS USING MATHEMATICAL MODELING OF CLOSED LOOP TRANSCRIPTIONAL REPRESSORS” (Tsinghua University, published 2020).

On to “TATAGAACCGATCCTCCCATT (double strand) [T9 site]”, for which, in the series with TALER10 (synthetic), the activity (mKate2/TagBFP) was 0.84. In the series with TALER9 (synthetic) (setting [1]), the binding signal (fold repression) was determined as 636. Consider “TCCGCCTCCCTCTC (double strand) [T29 site]”, for which the activity (mKate2/TagBFP) worked out at 1.19 in the series with TALER10 (synthetic) and 2.94 in the series on TALER9 (synthetic). Turning to “TACCCCTCTCCGCTTCT (double strand) [T14 site]”, the values for the activity (mKate2/TagBFP) in the series on TALER10 (synthetic) and in the series with TALER9 (synthetic) were 1.46 and 4.42, respectively. The matching figures for “TCCCGGAAGCCGATGCT (double strand) [T13 site]”: 0.93 and 2.17. Take “TGTCGTCTTCTGCACTTAT (double strand) [T21 site]”: the values for the activity (mKate2/TagBFP) in the series with TALER10 (synthetic) and in the series with TALER9 (synthetic) were 1.06 and 2.95, respectively.

For “TATTTCGACGCTCATTCT (double strand) [T12 site]”, the activity (mKate2/TagBFP) in the series on TALER10 (synthetic) is 1.04; in the series on TALER9 (synthetic), 2.38. As to “TACTGAATAATCAACACTGAATTCTAGGCGTGTACGGTGGGAGGCCTATATAAGCAGAGCTCGTTTAGTGAACCGTCAGATCGCCTCGAGTACTGAATAATCAACACTTACTGAATAATCAACACTTACTGAATAATCAACACT (double strand) [T5-CMVmini-T5x3]”, the binding signal (fold repression) in the series on TALER5 (synthetic) (HEK293, three 3' sites (15.43 with one)) came to 281. For “TTTATTCCCTGACA (double strand) [T35 site]”, the results for the activity (mKate2/TagBFP) in the series with TALER10 (synthetic) and in the series with TALER9 (synthetic) were 1.03 and 2.15, respectively. On to “TACGACTCACTATA (double strand) [T1 site]”, for which the activity (mKate2/TagBFP) was 2.51 in the series with TALER10 (synthetic) and 5.14 in the series with TALER9 (synthetic).

Consider “TACTGAATAATCAACACT (double strand) [T5 site]”, for which the binding signal (fold repression) in the series with TALER5 (synthetic) (setting [1]) stood at 17.9. Consider “TGCCCTCGGCCATCAGAAGGATCTT (double strand) [T16 site]”, for which the figures for the activity (mKate2/TagBFP) in the series with TALER10 (synthetic) and in the series on TALER9 (synthetic) were 1.66 and 3.97, respectively. Molecule “TACCTCATCAGGAACATGTT (double strand) [T10 site]” gave a binding signal (fold repression) in the series on TALER10 (synthetic) (setting [1]) of 1310. Further, in the series on TALER9 (synthetic), the activity (mKate2/TagBFP) was determined as 2.54.

B1: T24 site (dsDNA)
DNA 1: TAGACAAACCACAACTCTT
DNA 2: AAGAGTTGTGGTTTGTCTA
In the case of B1, the binding signal with TALER24 turned out to be 10.9 fold repression.

B2: T26 site (dsDNA)
DNA 1: TGGTAGACCTTAGGGCTA
DNA 2: TAGCCCTAAGGTCTACCA
Consider B2, for which the binding signal with TALER26 stood at 148 fold repression.
